B1: N7NL (antibody, human IgG4 S228P, kappa, V domains shown)
VH: QVQLVESGGGVVQPGRSLRLDCKASGITFSNSGMHWVRQAPGKGLEWVAVIWYDGSKRYYADSVKGRFTISRDNSKNTLFLQMNSLRAEDTAVYYCATNSDYWGQGTLVTVSS
VL: EIVLTQSPATLSLSPGERATLSCRASQSVSSYLAWYQQKPGQAPRLLIYDASNRATGIPARFSGSGSGTDFTLTISSLEPEDFAVYYCQQSSNWPRTFGQGTKVEIKR
notes: Full-length IgG4 from the pZRCIII hyg.IgG4 vector
B2: N6NL (antibody, human IgG4 S228P, kappa, V domains shown)
VH: QVQLVESGGGVVQPGRSLRLDCKASGITFSNSGMHWVRQAPGKGLEWVAVIWYDGSKRYYADSVKGRFTISRDNSKNTLFLQMNSLRAEDTAVYYCATNSDHWGQGTLVTVSS
VL: EIVLTQSPATLSLSPGERATLSCRASQSVSSYLAWYQQKPGQAPRLLIYDASNRATGIPARFSGSGSGTDFTLTISSLEPEDFAVYYCQQSSNWPRTFGQGTKVEIKR
notes: as for B1
B3: N5NL (antibody, human IgG4 S228P, kappa, V domains shown)
VH: QVQLVESGGGVVQPGRSLRLDCKASGITFSNSGMHWVRQAPGKGLEWVAVIWYDGSKRYYADSVKGRFTISRDNSKNTLFLQMNSLRAEDTAVYYCATNSDFWGQGTLVTVSS
VL: EIVLTQSPATLSLSPGERATLSCRASQSVSSYLAWYQQKPGQAPRLLIYDASNRATGIPARFSGSGSGTDFTLTISSLEPEDFAVYYCQQSSNWPRTFGQGTKVEIKR
notes: Full-length IgG4 from the pZRCIII hyg.IgG4 vector. 'NSNL' in the text is an OCR form of N5NL; also called NSNL
B4: IP-H4L1 (IgG4) (antibody)
heavy: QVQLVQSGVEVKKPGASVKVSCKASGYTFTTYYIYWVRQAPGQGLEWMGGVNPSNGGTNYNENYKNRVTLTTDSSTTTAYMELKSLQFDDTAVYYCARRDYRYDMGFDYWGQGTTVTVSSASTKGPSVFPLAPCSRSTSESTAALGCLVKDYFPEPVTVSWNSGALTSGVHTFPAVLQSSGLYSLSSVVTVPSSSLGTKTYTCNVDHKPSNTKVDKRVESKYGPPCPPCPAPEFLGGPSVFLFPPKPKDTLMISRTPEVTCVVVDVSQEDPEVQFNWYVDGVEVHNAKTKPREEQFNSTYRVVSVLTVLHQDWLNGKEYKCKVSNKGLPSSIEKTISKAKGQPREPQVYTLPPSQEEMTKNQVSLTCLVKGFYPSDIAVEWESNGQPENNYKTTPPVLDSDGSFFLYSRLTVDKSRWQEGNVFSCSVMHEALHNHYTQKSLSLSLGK
light: EIVLTQSPATLSLSPGERATLSCRASKGVSTSGYSYLHWYQQKPGQAPRLLIYLASYLESGVPARFSGSGSGTDFTLTISSLEPEDFAVYYCQHSRDLPLTFGGGTKVEIKRTVAAPSVFIFPPSDEQLKSGTASVVCLLNNFYPREAKVQWKVDNALQSGNSQESVTEQDSKDSTYSLSSTLTLSKADYEKHKVYACEVTHQGLSSPVTKSFNRGEC
B5: IP-H4L1 (IgG1) (antibody)
heavy: not shown
light: EIVLTQSPATLSLSPGERATLSCRASKGVSTSGYSYLHWYQQKPGQAPRLLIYLASYLESGVPARFSGSGSGTDFTLTISSLEPEDFAVYYCQHSRDLPLTFGGGTKVEIKRTVAAPSVFIFPPSDEQLKSGTASVVCLLNNFYPREAKVQWKVDNALQSGNSQESVTEQDSKDSTYSLSSTLTLSKADYEKHKVYACEVTHQGLSSPVTKSFNRGEC
B6: IP-H4.19L1 (antibody, human IgG4 S228P, kappa, V domains shown)
VH: QVQLVQSGVEVKKPGASVKVSCKASGYTFTTYYIYWVRQAPGQGLEWMGGVNPSNSGTNYNENYKNRVTLTTDSSTTTAYMELKSLQFDDTAVYYCARRDYRYDMGFDYWGQGTTVTVSS
VL: EIVLTQSPATLSLSPGERATLSCRASKGVSTSGYSYLHWYQQKPGQAPRLLIYLASYLESGVPARFSGSGSGTDFTLTISSLEPEDFAVYYCQHSRDLPLTFGGGTKVEIKR
B7: IP-H4.36L1 (antibody, human IgG4 S228P, kappa, V domains shown)
VH: QVQLVQSGVEVKKPGASVKVSCKASGYTFTTYYIYWVRQAPGQGLEWMGGVNPSNGGTNYNQNYKNRVTLTTDSSTTTAYMELKSLQFDDTAVYYCARRDYRYDMGFDYWGQGTTVTVSS
VL: EIVLTQSPATLSLSPGERATLSCRASKGVSTSGYSYLHWYQQKPGQAPRLLIYLASYLESGVPARFSGSGSGTDFTLTISSLEPEDFAVYYCQHSRDLPLTFGGGTKVEIKR
B8: IP-H4.2L1 (antibody, human IgG4 S228P, kappa, V domains shown)
VH: QVQLVQSGVEVKKPGASVKVSCKASGYTFTTYYIYWVRQAPGQGLEWMGGVNPSNGGTNYNENYKNRVTLTTDSSTTTAYMELKSLQFDDTAVYYCARRDYRYDMGYDYWGQGTTVTVSS
VL: EIVLTQSPATLSLSPGERATLSCRASKGVSTSGYSYLHWYQQKPGQAPRLLIYLASYLESGVPARFSGSGSGTDFTLTISSLEPEDFAVYYCQHSRDLPLTFGGGTKVEIKR

The target of this test is T1, Human PD-1 (AcroBiosystems) (human, UniProt Q15116 25-167, limits assumed).
T1 construct: Bought recombinant protein, amine-coupled to the SPR chip
T1 sequence (Q15116 25-167 limits assumed): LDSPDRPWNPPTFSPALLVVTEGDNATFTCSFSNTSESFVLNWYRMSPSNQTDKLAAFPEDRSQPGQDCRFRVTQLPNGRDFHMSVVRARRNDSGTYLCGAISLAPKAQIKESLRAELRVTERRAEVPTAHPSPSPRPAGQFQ
Put plainly: SPR (ProteOn XPR), human PD-1 amine-coupled on GLC chip, antibody as analyte, Langmuir model. The procedure:
Human PD-1 (AcroBiosystems) was directly immobilized onto the GLC Chip (ProteOn) using amine-coupling method to obtain a ligand immobilization level of about 500 RU. 10 mM Phosphate Buffered Saline (PBS) (10mM phosphate buffer, pH 7.4, 300 mM NaCl, 0.005% Surfactant P20) was used as the running buffer to carry out the kinetic measurements. All the one step purified antibody samples were diluted in running buffer described above at a suitable concentration in series of concentrations from 10 nM to 0.09 nM. These samples were injected over the chip at a flow rate of 50 μL/min with an association time of 300 s and dissociation time of 1800s. After each sample run, the chip surface was regenerated with 10mM Glycine Buffer pH 1.5 for 18 sec at a flow rate of 100 μL/min.
KD values (Kinetic constants) were determined as the ratio of dissociation rate (kd) to association rate (ka), i.e. KD =kd/ka using ProteOn manager software v3.1.0.6.
What is called Kd is the concentration at which binding is half-saturated. Broadly, the koff is the first-order rate constant of dissociation. By kon is commonly meant the rate constant with which the complex forms. Low values mean slower complex formation, high ones faster complex formation. With B1, the Kd is 0.0491 nM, the koff was determined as 9.54e-05 s⁻¹ and the kon was 1.95e+06 M⁻¹ s⁻¹.

Regarding B2, binding was characterised by a dissociation constant (Kd) of 0.0826 nM, the koff is 0.000154 s⁻¹ and the kon came to 1.86e+06 M⁻¹ s⁻¹.

As for B3, the Kd came out at 0.075 nM, the koff came out at 0.000151 s⁻¹ and the kon is 2.03e+06 M⁻¹ s⁻¹.

For the molecule B4, binding was put at a Kd of 0.0286 nM, the koff came out at 5.36e-05 s⁻¹ and the kon was determined as 1.87e+06 M⁻¹ s⁻¹.

Take B5: the Kd worked out at 0.0248 nM, the koff was determined as 5.21e-05 s⁻¹ and the kon amounted to 2.12e+06 M⁻¹ s⁻¹.

As to B6, the affinity, expressed as Kd, was 0.0409 nM; the koff was 6.28e-05 s⁻¹; the on-rate (kon) amounted to 1.54e+06 M⁻¹ s⁻¹.

As to B7, the Kd came to 0.0317 nM, the koff came out at 6.2e-05 s⁻¹ and the kon came to 1.96e+06 M⁻¹ s⁻¹.

Molecule B8 registered a Kd of 0.0082 nM, a koff of 1.37e-05 s⁻¹ and a kon of 1.67e+06 M⁻¹ s⁻¹.

For the origin of these results see patent publication US20220289846A1 (ZYDUS LIFESCIENCES, published 2022).
